Results: patent US20130017578
Where two headings read alike, the source gives them in different places.

How the values were obtained:
[1] = biological target: Int5 (Int-h/218 mutein) Int-h/218 substitutions (not given),I43A (Bacteriophage lambda) (UniProt P03700); details: attH x attPH, relative to Int-h/218 on attB x attP
[2] = biological target: Int1 (Int-h/218 mutein) Int-h/218 substitutions (not given),I43A,H61R (Bacteriophage lambda) (UniProt P03700); details: attH x attPH, relative to Int-h/218 on attB x attP
[3] = biological target: Int5 (Int-h/218 mutein) Int-h/218 substitutions (not given),I43A (Bacteriophage lambda) (UniProt P03700); assay: cell_activity; details: attB x attP GFP reporter in HEK293, relative to Int-h/218
[4] = biological target: Int1 (Int-h/218 mutein) Int-h/218 substitutions (not given),I43A,H61R (Bacteriophage lambda) (UniProt P03700); assay: cell_activity; details: attB x attP GFP reporter in HEK293, relative to Int-h/218
[5] = biological target: Int-h/218 (parental lambda integrase mutant) Int-h/218 substitutions (not given) (Bacteriophage lambda) (UniProt P03700); details: attB x attP recombination, real-time PCR; reference activity

CTGCTTTCTTATACCAAGTGG (double strand) [attH]
binding signal ([1]; 9-fold over Int-h/218 on genomic attH (FIG. 4D)): 100%
binding signal ([2]; 7-fold over Int-h/218 when translated in vitro (FIG. 4A)): 140%

CAGCTTTTTTATACTAAGTTG (double strand) [attP core]
binding signal ([3]; attH x attP <1% activity): 65%
binding signal ([4]; attH x attP <1% activity): 50%
binding signal [5]: 100%

CTGCTTTTTTATACTAACTTG (double strand) [attB core]
binding signal [3]: 65%
binding signal [4]: 50%
binding signal [5]: 100%

CAGCTTTCTTATACCAAGTTG (double strand) [attPH]
binding signal [1]: 100%
binding signal [2]: 140%
